For one molecule, FRET efficiency (E FRET), vehicle treated cells results are on record in paper PMC3534898.

For this assay, the target named is Presenilin 1 (mouse (endogenous in primary neurons of CD1 mice)), P49769. The assay can be described thus: FRET or BRET. Conditions: remark: other sources report otherwise.

B1: amyloid β precursor protein, P12023 18-770 (natural protein)
chain: LEVPTDGNAGLLAEPQIAMFCGKLNMHMNVQNGKWESDPSGTKTCIGTKEGILQYCQEVYPELQITNVVEANQPVTIQNWCKRGRKQCKTHTHIVIPYRCLVGEFVSDALLVPDKCKFLHQERMDVCETHLHWHTVAKETCSEKSTNLHDYGMLLPCGIDKFRGVEFVCCPLAEESDSVDSADAEEDDSDVWWGGADTDYADGGEDKVVEVAEEEEVADVEEEEADDDEDVEDGDEVEEEAEEPYEEATERTTSTATTTTTTTESVEEVVREVCSEQAETGPCRAMISRWYFDVTEGKCVPFFYGGCGGNRNNFDTEEYCMAVCGSVSTQSLLKTTSEPLPQDPDKLPTTAASTPDAVDKYLETPGDENEHAHFQKAKERLEAKHRERMSQVMREWEEAERQAKNLPKADKKAVIQHFQEKVESLEQEAANERQQLVETHMARVEAMLNDRRRLALENYITALQAVPPRPHHVFNMLKKYVRAEQKDRQHTLKHFEHVRMVDPKKAAQIRSQVMTHLRVIYERMNQSLSLLYNVPAVAEEIQDEVDELLQKEQNYSDDVLANMISEPRISYGNDALMPSLTETKTTVELLPVNGEFSLDDLQPWHPFGVDSVPANTENEVEPVDARPAADRGLTTRPGSGLTNIKTEEISEVKMDAEFGHDSGFEVRHQKLVFFAEDVGSNKGAIIGLMVGGVVIATVIVITLVMLKKKQYTSIHHGVVEVDAAVTPEERHLSKMQQNGYENPTYKFFEQMQN
B1: the FRET efficiency (E FRET), vehicle treated cells was 7.07%.
